According to PMC6612524:

Target: human plasma fibronectin (human)
Assay: ITC; 35 μM peptide titrated into the cell with 2.7 μM human plasma fibronectin; PBS pH 7.4; 25 °C; one set of sites model; duplicates

human plasma fibronectin (human), sequence (P02751 other isoform, or with tags, fused parts or gaps): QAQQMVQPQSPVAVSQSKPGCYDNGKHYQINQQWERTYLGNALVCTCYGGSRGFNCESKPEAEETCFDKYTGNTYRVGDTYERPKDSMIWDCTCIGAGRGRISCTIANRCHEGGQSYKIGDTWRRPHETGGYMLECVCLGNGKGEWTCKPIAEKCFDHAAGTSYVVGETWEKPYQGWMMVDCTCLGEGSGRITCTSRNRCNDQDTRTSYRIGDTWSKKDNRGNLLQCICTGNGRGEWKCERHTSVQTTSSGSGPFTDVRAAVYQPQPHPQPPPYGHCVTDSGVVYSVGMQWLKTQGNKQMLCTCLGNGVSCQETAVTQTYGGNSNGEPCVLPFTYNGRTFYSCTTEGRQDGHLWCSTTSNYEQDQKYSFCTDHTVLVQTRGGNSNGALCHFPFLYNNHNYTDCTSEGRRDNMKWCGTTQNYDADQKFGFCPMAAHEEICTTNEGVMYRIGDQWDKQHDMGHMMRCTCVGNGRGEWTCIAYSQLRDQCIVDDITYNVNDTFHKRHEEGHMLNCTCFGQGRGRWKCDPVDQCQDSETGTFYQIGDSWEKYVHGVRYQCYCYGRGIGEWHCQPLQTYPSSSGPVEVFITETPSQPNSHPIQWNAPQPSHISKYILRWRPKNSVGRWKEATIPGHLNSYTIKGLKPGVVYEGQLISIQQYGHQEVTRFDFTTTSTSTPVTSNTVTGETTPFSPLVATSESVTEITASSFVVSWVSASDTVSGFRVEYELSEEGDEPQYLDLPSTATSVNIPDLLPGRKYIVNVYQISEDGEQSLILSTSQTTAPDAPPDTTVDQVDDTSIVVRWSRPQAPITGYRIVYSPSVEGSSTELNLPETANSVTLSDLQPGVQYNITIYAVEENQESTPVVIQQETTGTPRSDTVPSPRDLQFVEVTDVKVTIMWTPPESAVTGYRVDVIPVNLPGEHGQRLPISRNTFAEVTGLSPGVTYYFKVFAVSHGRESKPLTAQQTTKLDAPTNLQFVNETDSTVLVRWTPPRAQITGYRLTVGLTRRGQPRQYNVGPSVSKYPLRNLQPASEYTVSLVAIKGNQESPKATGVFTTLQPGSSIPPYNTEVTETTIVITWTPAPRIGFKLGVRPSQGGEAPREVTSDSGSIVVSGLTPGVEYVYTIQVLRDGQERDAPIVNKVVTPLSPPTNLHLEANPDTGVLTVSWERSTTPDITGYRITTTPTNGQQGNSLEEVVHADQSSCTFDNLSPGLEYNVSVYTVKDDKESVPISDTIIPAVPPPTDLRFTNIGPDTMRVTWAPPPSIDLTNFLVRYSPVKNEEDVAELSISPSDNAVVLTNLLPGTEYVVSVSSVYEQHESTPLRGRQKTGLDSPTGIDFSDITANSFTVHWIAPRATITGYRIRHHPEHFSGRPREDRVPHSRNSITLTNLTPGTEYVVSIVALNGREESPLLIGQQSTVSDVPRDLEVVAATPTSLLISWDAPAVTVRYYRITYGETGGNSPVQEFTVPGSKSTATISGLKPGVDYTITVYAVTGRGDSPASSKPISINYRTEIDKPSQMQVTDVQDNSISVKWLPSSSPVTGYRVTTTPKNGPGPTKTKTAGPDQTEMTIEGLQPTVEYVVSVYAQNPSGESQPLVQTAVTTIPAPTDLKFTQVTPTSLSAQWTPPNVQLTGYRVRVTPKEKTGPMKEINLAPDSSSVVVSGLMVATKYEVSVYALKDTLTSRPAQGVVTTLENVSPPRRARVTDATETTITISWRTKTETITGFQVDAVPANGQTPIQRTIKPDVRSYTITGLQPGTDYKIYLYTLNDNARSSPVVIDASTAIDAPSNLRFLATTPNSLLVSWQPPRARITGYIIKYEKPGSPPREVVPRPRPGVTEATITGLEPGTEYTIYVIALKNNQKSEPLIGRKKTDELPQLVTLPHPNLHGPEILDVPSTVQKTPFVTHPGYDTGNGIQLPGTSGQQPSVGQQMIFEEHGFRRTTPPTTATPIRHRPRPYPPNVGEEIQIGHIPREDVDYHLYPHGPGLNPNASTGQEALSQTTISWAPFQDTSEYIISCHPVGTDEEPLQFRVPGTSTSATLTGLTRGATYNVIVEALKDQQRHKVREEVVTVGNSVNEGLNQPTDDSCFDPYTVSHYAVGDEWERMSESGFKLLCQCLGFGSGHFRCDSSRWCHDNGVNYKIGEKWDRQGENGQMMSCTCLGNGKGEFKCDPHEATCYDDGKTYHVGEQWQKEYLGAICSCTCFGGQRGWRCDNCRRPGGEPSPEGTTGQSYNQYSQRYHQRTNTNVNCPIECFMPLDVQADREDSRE

| Substance | Kd | dH | stoichiometry N |
| --- | --- | --- | --- |
| Functional Upstream Domain (FUD) peptide (peptide; other documents disagree on this pair) | 4.3 nM | -33 kcal/mol | 1.47 |
| singly sulfo-Cy5 labeled FUD peptide (peptide; other documents disagree on this pair) | 4.7 nM | -35.8 kcal/mol | 1.48 |
| sulfo-Cy5 labeled 20 kDa PEG-FUD (peptide; other documents disagree on this pair) | 13 nM | -35 kcal/mol | 1.5 |
